From US20230295272A1

Columns and labels:
[1] = target: canine parvovirus (CPV), CPV-2c TS02 strain, purified virus (canine parvovirus CPV-2c (TS02 strain)); assay: indirect ELISA, purified CPV coated at 10 ug/mL, purified nanobody diluted 1:10, anti-His-HRP
[2] = target: canine parvovirus (CPV), CPV-2c TS02 strain, purified virus (canine parvovirus CPV-2c (TS02 strain)); assay: indirect ELISA, purified CPV coated at 10 ug/mL, purified nanobody diluted 1:1,000, anti-His-HRP
[3] = target: canine parvovirus (CPV), CPV-2c TS02 strain, purified virus (canine parvovirus CPV-2c (TS02 strain)); assay: indirect ELISA, purified CPV coated at 10 ug/mL, purified nanobody diluted 1:10,000, anti-His-HRP
[4] = target: canine parvovirus (CPV), CPV-2c TS02 strain, purified virus (canine parvovirus CPV-2c (TS02 strain)); assay: indirect ELISA, purified CPV coated at 10 ug/mL, purified nanobody diluted 1:100, anti-His-HRP
[5] = target: canine parvovirus (CPV), CPV-2c TS02 strain, purified virus (canine parvovirus CPV-2c (TS02 strain)); assay: cell-based or functional assay

B1: canine parvovirus (CPV) nanobody CPV-VHH-E3 (VHH)
VHH: QLQLVESGGGSVQPGGSLRLSCAASGFTLDFYRVGWFRQAPGKERQGVACIGSAGDRTFYVDSVKGRFTISKDNTKNTVYLQMNSLKPEDTAVYYCAAVLSPRITSVQAMCTHHGEGFDYWGQGTQVTVSS
Binder B1 has an OD450nm average value [1] of 2.81 OD450nm, an OD450nm average value [2] of 2.24 OD450nm and an OD450nm average value [3] of 0.17 OD450nm. It also gave an OD450nm average value [4] of 2.6 OD450nm, a CPE number at antibody dilution 1:10 (of 3 wells with CPE) [5] of 3 and a neutralizing titer (virus neutralization test, CPE on CRFK cells) (titer (1:x dilution)) [5] of under 10.
